Target: human IL13 (human) (UniProt P35225)
Test: cell-based or functional assay

Chain of human IL13 (human) (P35225 other isoform, or with tags, fused parts or gaps limits assumed): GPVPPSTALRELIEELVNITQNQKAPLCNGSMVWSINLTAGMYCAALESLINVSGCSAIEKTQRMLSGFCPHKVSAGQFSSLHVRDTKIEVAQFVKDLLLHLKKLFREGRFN

anti-IL13 MAb JES10-5A2 (BD Biosciences-Pharmingen) (antibody)
concentration for complete inhibition of IL13-suppressed CD14 expression on human monocytes (0.813 nM IL13): > 80 nM
